Measured values: PMC9127220 (The Journal of Biological Chemistry, 2022)
Read-outs that look alike come from different tables or passages of the source.

B1: acyl carrier protein (AcpP) (natural protein, E. coli (endogenous in BL21(DE3)), UniProt P0A6A8 1-78, looked up)
chain: MSTIEERVKKIIGEQLGVKQEEVTNNASFVEDLGADSLDTVELVMALEEEFDTEIPDEEAEKITTVQAAIDYINGHQA
B2: MukF (natural protein, Escherichia coli, UniProt P60293 1-440, looked up)
chain: MSEFSQTVPELVAWARKNDFSISLPVDRLSFLLAVATLNGERLDGEMSEGELVDAFRHVSDAFEQTSETIGVRANNAINDMVRQRLLNRFTSEQAEGNAIYRLTPLGIGITDYYIRQREFSTLRLSMQLSIVAGELKRAADAAEEGGDEFHWHRNVYAPLKYSVAEIFDSIDLTQRLMDEQQQQVKDDIAQLLNKDWRAAISSCELLLSETSGTLRELQDTLEAAGDKLQANLLRIQDATMTHDDLHFVDRLVFDLQSKLDRIISWGQQSIDLWIGYDRHVHKFIRTAIDMDKNRVFAQRLRQSVQTYFDEPWALTYANADRLLDMRDEEMALRDEEVTGELPEDLEYEEFNEIREQLAAIIEEQLAVYKTRQVPLDLGLVVREYLSQYPRARHFDVARIVIDQAVRLGVAQADFTGLPAKWQPINDYGAKVQAHVIDKY
B3: ParC subunit of topoisomerase IV (natural protein, Escherichia coli, UniProt P0AFI2 1-752, looked up)
chain: MSDMAERLALHEFTENAYLNYSMYVIMDRALPFIGDGLKPVQRRIVYAMSELGLNASAKFKKSARTVGDVLGKYHPHGDSACYEAMVLMAQPFSYRYPLVDGQGNWGAPDDPKSFAAMRYTESRLSKYSELLLSELGQGTADWVPNFDGTLQEPKMLPARLPNILLNGTTGIAVGMATDIPPHNLREVAQAAIALIDQPKTTLDQLLDIVQGPDYPTEAEIITSRAEIRKIYENGRGSVRMRAVWKKEDGAVVISALPHQVSGARVLEQIAAQMRNKKLPMVDDLRDESDHENPTRLVIVPRSNRVDMDQVMNHLFATTDLEKSYRINLNMIGLDGRPAVKNLLEILSEWLVFRRDTVRRRLNYRLEKVLKRLHILEGLLVAFLNIDEVIEIIRNEDEPKPALMSRFGLTETQAEAILELKLRHLAKLEEMKIRGEQSELEKERDQLQGILASERKMNNLLKKELQADAQAYGDDRRSPLQEREEAKAMSEHDMLPSEPVTIVLSQMGWVRSAKGHDIDAPGLNYKAGDSFKAAVKGKSNQPVVFVDSTGRSYAIDPITLPSARGQGEPLTGKLTLPPGATVDHMLMESDDQKLLMASDAGYGFVCTFNDLVARNRAGKALITLPENAHVMPPVVIEDASDMLLAITQAGRMLMFPVSDLPQLSKGKGNKIINIPSAEAARGEDGLAQLYVLPPQSTLTIHVGKRKIKLRPEELQKVTGERGRRGTLMRGLQRIDRVEIDSPRRASSGDSEE
B4: MukB (natural protein, Escherichia coli, UniProt P22523 1-1486, looked up)
chain: MIERGKFRSLTLINWNGFFARTFDLDELVTTLSGGNGAGKSTTMAAFVTALIPDLTLLHFRNTTEAGATSGSRDKGLHGKLKAGVCYSMLDTINSRHQRVVVGVRLQQVAGRDRKVDIKPFAIQGLPMSVQPTQLVTETLNERQARVLPLNELKDKLEAMEGVQFKQFNSITDYHSLMFDLGIIARRLRSASDRSKFYRLIEASLYGGISSAITRSLRDYLLPENSGVRKAFQDMEAALRENRMTLEAIRVTQSDRDLFKHLISEATNYVAADYMRHANERRVHLDKALEFRRELHTSRQQLAAEQYKHVDMARELAEHNGAEGDLEADYQAASDHLNLVQTALRQQEKIERYEADLDELQIRLEEQNEVVAEAIERQQENEARAEAAELEVDELKSQLADYQQALDVQQTRAIQYNQAIAALNRAKELCHLPDLTADCAAEWLETFQAKELEATEKMLSLEQKMSMAQTAHSQFEQAYQLVVAINGPLARNEAWDVARELLREGVDQRHLAEQVQPLRMRLSELEQRLREQQEAERLLADFCKRQGKNFDIDELEALHQELEARIASLSDSVSNAREERMALRQEQEQLQSRIQSLMQRAPVWLAAQNSLNQLSEQCGEEFTSSQDVTEYLQQLLEREREAIVERDEVGARKNAVDEEIERLSQPGGSEDQRLNALAERFGGVLLSEIYDDVSLEDAPYFSALYGPSRHAIVVPDLSQVTEHLEGLTDCPEDLYLIEGDPQSFDDSVFSVDELEKAVVVKIADRQWRYSRFPEVPLFGRAARESRIESLHAEREVLSERFATLSFDVQKTQRLHQAFSRFIGSHLAVAFESDPEAEIRQLNSRRVELERALSNHENDNQQQRIQFEQAKEGVTALNRILPRLNLLADDSLADRVDEIRERLDEAQEAARFVQQFGNQLAKLEPIVSVLQSDPEQFEQLKEDYAYSQQMQRDARQQAFALTEVVQRRAHFSYSDSAEMLSGNSDLNEKLRERLEQAEAERTRAREALRGHAAQLSQYNQVLASLKSSYDTKKELLNDLQRELQDIGVRADSGAEERARIRRDELHAQLSNNRSRRNQLEKALTFCEAEMDNLTRKLRKLERDYFEMREQVVTAKAGWCAVMRMVKDNGVERRLHRRELAYLSADDLRSMSDKALGALRLAVADNEHLRDVLRMSEDPKRPERKIQFFVAVYQHLRERIRQDIIRTDDPVEAIEQMEIELSRLTEELTSREQKLAISSRSVANIIRKTIQREQNRIRMLNQGLQNVSFGQVNSVRLNVNVRETHAMLLDVLSEQHEQHQDLFNSNRLTFSEALAKLYQRLNPQIDMGQRTPQTIGEELLDYRNYLEMEVEVNRGSDGWLRAESGALSTGEAIGTGMSILVMVVQSWEDESRRLRGKDISPCRLLFLDEAARLDARSIATLFELCERLQMQLIIAAPENISPEKGTTYKLVRKVFQNTEHVHVVGLRGFAPQLPETLPGTDEAPSQAS

Assays:
MukB [1] = biological target: B4; assay: co-purification
MukB [2] = biological target: B4; assay: cross-linking
MukB [3] = biological target: B4; assay: cross-linking; remark: listed apart in the source
cross-linking = biological target: the molecule itself; assay: cross-linking

Binder: B1
- stoichiometry N (MukB [1]): 1 AcpP:MukB

Binder: B2
- binding result (MukB [2]): binds

Binder: B3
- binding result (MukB [3]): binds

Binder: B4
- binding result (cross-linking): binds
